Results from the supplement of paper PMC10126150.
± gives the standard deviation of the averaged measurements.

System: ATP
Test: switch fluorescence ratio, 500 uM ATP over buffer (Cy3 cluster intensity, sum of 5 cycles each) (fold (ratio)); higher = stronger signal-on switching upon ATP binding; sequences stand for … in TCGTCGGCAGCGTCAGATGTGTATAAGAGACAGTTTTTTTTTTTTTTTTTTTTTTTTT…TC
Conditions: aptamer strand: ATP DNA aptamer (quencher-CACCTGGGGGAGTATTGCGGAGGAAGG + anchor), 100 nM annealed; ATP concentration: 500 uM
In short: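 Cy3-labelled switching-strand clusters on a modified Illumina MiSeq flow-cell were annealed to 100 nM quencher-labelled ATP aptamer and imaged first in selection buffer, then after 15 min with 500 uM ATP at 22 °C. NaOH stripping and re-annealing separated each of five buffer/ATP cycles, and clusters outside 100-1000 RFU were excluded. The fluorescence ratio sums target-cycle Cy3 intensity over buffer-cycle Cy3 intensity per cluster and averages it per switch-domain sequence.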
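Further: ATP exposure 15 min at 22 °C before imaging.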

Sequence	switch fluorescence ratio
AAAGGAAATT	1 ± 0.033
AAAGGAGGTA	1 ± 0.012
AAAGGATCGG	0.9923 ± 0.0056
AAAGGCAAAG	0.9971 ± 0.0082
AAAGGCGTGG	0.9555 ± 0.0064
AAAGGCTTGG	0.992 ± 0.015
AAAGGGAAAA	1 ± 0.028
AAAGGGACGT	0.991 ± 0.051
AAAGGGCAAT	1.14 ± 0.18
AAAGGGCGAT	0.976 ± 0.011
AAAGGGCGGC	0.992 ± 0.018
AAAGGGGCGC	0.993 ± 0.035
AAAGGGGGCA	0.99 ± 0.031
AAAGGGGGGC	1 ± 0.057
AAAGGGGGTC	1.01 ± 0.039
AAAGGGGTAT	1.03 ± 0.027
AAAGGGGTTG	1.01 ± 0.072
AAAGGGTAAG	0.975 ± 0.015
AAAGGGTCGA	1.02 ± 0.03
AAAGGGTGAG	0.9726 ± 0.0064
AAAGGGTGCT	1.1 ± 0.015
AAAGGTAACG	1.001 ± 0.0021
AAAGGTCAT	0.9933 ± 0.0018

Sequence	switch fluorescence ratio
AAAGGTGCCT	1.05 ± 0.031
AAAGGTGGCG	1.07 ± 0.19
AAAGGTTTAC	0.978 ± 0.025
AAAGTACTCG	1.12 ± 0.0043
AAAGTAGTGT	1.024 ± 0.004
AAAGTCATGT	1.02 ± 0.05
AAAGTCGCGC	1.01 ± 0.018
AAAGTCTGAT	0.959 ± 0.027
AAAGTCTTGT	1.01 ± 0.035
AAAGTGAAGG	0.996 ± 0.027
AAAGTGGGCG	1.13 ± 0.18
AAAGTGTGCC	0.962 ± 0.013
AAAGTGTTGC	1.05 ± 0.042
AAAGTGTTGG	1.02 ± 0.022
AAAGTGTTTC	0.986 ± 0.029
AAAGTTATAC	1.12 ± 0.037
AAAGTTCGTA	0.985 ± 0.039
AAAGTTGCTA	0.985 ± 0.019
AAAGTTTACA	1.03 ± 0.014
AAAGTTTTCC	1.08 ± 0.074
AAATAAAAAG	1.01 ± 0.027
AAATAAACGG	1.08 ± 0.14
AAATAAGGAG	1.02 ± 0.033

Sequence	switch fluorescence ratio
AAATAATGAT	1 ± 0.021
AAATAATTCG	0.997 ± 0.032
AAATAATTTC	1 ± 0.027
AAATACAAGG	1.15 ± 0.24
AAATACGTAT	1.04 ± 0.046
AAATAGAGTT	0.998 ± 0.013
AAATATTTTA	0.999 ± 0.015
AAATCACGTC	1.07 ± 0.019
AAATCAGATA	0.987 ± 0.033
AAATCCTATT	0.982 ± 0.016
AAATCGAAAC	1.03 ± 0.038
AAATCGGAAT	1.25 ± 0.27
AAATCGGCGG	0.991 ± 0.05
AAATCGGGTT	1.15 ± 0.28
AAATCGTTCC	2.14 ± 0.082
AAATCGTTTT	0.972 ± 0.047
AAATCTAGAC	0.998 ± 0.011
AAATCTCTTA	0.997 ± 0.015
AAATCTGCTG	1 ± 0.061
AAATCTGTCA	1.03 ± 0.02
AAATCTTAAA	0.9917 ± 0.0023
AAATGAATGG	1.0177 ± 0.00097
AAATGACAGC	1.06 ± 0.037

Sequence	switch fluorescence ratio
AAATGACGGC	0.988 ± 0.15
AAATGACGTC	1.01 ± 0.023
AAATGATTGG	0.982 ± 0.019
AAATGCCGTT	0.982 ± 0.015
AAATGCTAGC	1.01 ± 0.039
AAATGCTTAT	1.04 ± 0.022
AAATGGAACC	1.04 ± 0.065
AAATGGGAGC	0.99 ± 0.031
AAATGGGGAC	0.9777 ± 0.0029
AAATGGGGAT	1.01 ± 0.032
AAATGGGTAG	0.9692 ± 0.0062
AAATGGTATC	1.01 ± 0.028
AAATGGTGGT	1.02 ± 0.018
AAATGGTTCC	1.72 ± 1
AAATGTCCGG	1 ± 0.024
AAATGTGAAT	1 ± 0.029
AAATGTGGAA	0.994 ± 0.018
AAATGTGTCT	1.01 ± 0.04
AAATGTTACA	1.06 ± 0.021
AAATGTTTAT	0.9804 ± 0.0017
AAATTAAAAG	0.984 ± 0.031
AAATTAATGT	1 ± 0.018
AAATTAGCGG	0.987 ± 0.032

Sequence	switch fluorescence ratio
AAATTAGGCG	0.975 ± 0.021
AAATTATGGA	0.969 ± 0.075
AAATTCGTAT	0.9976 ± 0.0068
AAATTGAGAG	1.004 ± 0.0021
AAATTGGGCT	1.03 ± 0.026
AAATTGGTCC	1.02 ± 0.016
AAATTTATAT	1.02 ± 0.015
AAATTTCGTT	0.966 ± 0.016
AAATTTGTTA	0.985 ± 0.04
AAATTTTCGA	1.018 ± 0.0088
AAATTTTTTG	1 ± 0.023
AACAAATTTT	1.012 ± 0.0097
AACAACCGGT	0.961 ± 0.031
AACAACTCCA	1.015 ± 0.0036
AACAAGTAAT	1 ± 0.018
AACAATTATT	1.04 ± 0.048
AACAGGCGGC	0.9872 ± 0.00069
AACAGGGCGG	1.01 ± 0.015
AACATATCTT	0.996 ± 0.014
AACATATGTT	0.972 ± 0.025
AACATCGTAC	1.12 ± 0.06
AACATCTAGA	0.965 ± 0.011
AACATGAGGA	1 ± 0.02

Sequence	switch fluorescence ratio
AACATTATGT	1 ± 0.04
AACATTGTTT	1.01 ± 0.016
AACCAAGGTT	1.05 ± 0.082
AACCAGGGGC	1.37 ± 0.091
AACCAGTGAT	1.05 ± 0.017
AACCATTAGG	0.9956 ± 0.0053
AACCCAATTT	0.985 ± 0.015
AACCCGGGGT	0.99 ± 0.045
AACCCTTTCA	1.06 ± 0.035
AACCGCCCTT	1.27 ± 0.15
AACCGGGATC	1.14 ± 0.013
AACCTGGTAT	1.01 ± 0.035
AACCTTAGTC	1.1 ± 0.045
AACGAAAAAG	1.12 ± 0.18
AACGAAAATG	0.997 ± 0.053
AACGAAGGTA	0.9884 ± 0.0011
AACGACTATG	1.05 ± 0.029
AACGAGGAGT	1.01 ± 0.0058
AACGAGGGGA	0.9716 ± 0.0045
AACGAGTGAC	1.04 ± 0.019
AACGAGTGAG	1.01 ± 0.023
AACGAGTGGG	1.03 ± 0.019
AACGCATAGG	1.176 ± 0.0078

Sequence	switch fluorescence ratio
AACGCATATT	1.85 ± 0.78
AACGCCATGC	2.68 ± 0.38
AACGCTCGTC	1.02 ± 0.06
AACGGAAAGG	1.01 ± 0.017
AACGGGAATT	1.039 ± 0.0056
AACGGGGAAG	0.995 ± 0.022
AACGGGGGGT	0.997 ± 0.033
AACGGGGTAG	0.983 ± 0.034
AACGGGTTAT	0.995 ± 0.032
AACGGGTTGG	0.998 ± 0.047
AACGGTAAAT	1.01 ± 0.085
AACGGTAGGT	1.01 ± 0.018
AACGGTCTTT	0.997 ± 0.014
AACGTATGTG	0.937 ± 0.025
AACGTGGCGG	0.988 ± 0.018
AACGTGGGGC	1.01 ± 0.05
AACGTGTATT	1.1 ± 0.12
AACGTTATGC	1.13 ± 0.069
AACGTTTAAA	1.04 ± 0.1
